From the supplement of paper PMC7877785
± gives the uncertainty stated by the source.

Assay: self-splicing fitness, log relative to wild type (ln ratio); higher = more splicing; Tetrahymena group I intron in knt gene, E. coli kanamycin selection, DiMSum; sequences stand for … in CUCUCU…GGAGGGAAAAGUUAUCAGGCAUGCACCUGGUAGCUAGUCUUUAAACCAAUAGAUUGCAUCGGUUUAAAAGGCAAGACCGUCAAAUUGCGGGAAAGGGGUCAACAGCCGUUCAGUACCAAGUCUCAGGGGAAACUUUGAGAUGGCCUUGCAAAGGGUAUGGUAAUAAGCUGACGGACAUGGUCCUAACCACGCAGCCAAGUCCUAAGUCAACAGAUCUUCUGUUGAUAUGGAUGCAGUUCACAGACUAAAUGUCGGUCGGGGAAGAUGUAUUCUUCUCAUAAGAUAUAGUCGGACCUCUCCUUAAUGGGAGCUAGCGGAUGAAGUGAUGCAACACUGGAGCCGCUGGGAACUAAUUUGUAUGCGAAAGUAUAUUGAUUAGUUUUGGAGUACUCGUGGUCG
How it was run: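 DiMSum derived fitness as the error-weighted combination of fold changes across replicates, kanamycin versus no kanamycin, normalised to wild type. E. coli BL21(DE3) held the library, which randomised all eight P1ex-region intron nucleotides within the knt kanamycin-resistance gene on pET-22b(+). Six replicate transformations grew overnight at 37°C or 30°C on LB agar with or without 25 μg/mL kanamycin, also containing 100 μg/mL carbenicillin, 50 μM IPTG and 0.2% rhamnose, and pooled colonies were amplicon-sequenced on an Illumina HiSeq 2500.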

| Sequence | self-splicing fitness (ln) (30 °C) | self-splicing fitness (ln) (37 °C) |
| --- | --- | --- |
| AUGAAGCAAUAUUACGGAAG | -1.17 ± 0.1 | -0.408 ± 0.16 |
| GGACAGCAAUAUUACGUCAU | -1.17 ± 0.095 | -0.489 ± 0.1 |
| UCGCAGCAAUAUUACGAUAU | -3.68 ± 0.3 | -2.41 ± 0.27 |
| AAGUAGCAAUAUUACGGUCC | -1.32 ± 0.17 | -0.239 ± 0.14 |
| UCAAAGCAAUAUUACGUUAU | -3.43 ± 0.18 | -3.37 ± 0.35 |
| GUUCAGCAAUAUUACGCUAA | -1.03 ± 0.2 | 0.184 ± 0.2 |
| UUGCAGCAAUAUUACGGGGC | -3.99 ± 0.2 | -2.35 ± 0.2 |
| UACAAGCAAUAUUACGGCGA | -0.244 ± 0.072 | 0.0939 ± 0.087 |
| UUGUAGCAAUAUUACGAUAA | -1.44 ± 0.11 | -0.33 ± 0.17 |
| GUGGAGCAAUAUUACGACAU | -2.402 ± 0.022 | -1.48 ± 0.038 |
| UAACAGCAAUAUUACGUGUA | -1.6 ± 0.056 | -0.0928 ± 0.06 |
| UCGGAGCAAUAUUACGUCAC | -3.68 ± 0.43 | -2.68 ± 0.36 |
| UGACAGCAAUAUUACGGACG | 0.0374 ± 0.078 | 0.415 ± 0.11 |
| GUGAAGCAAUAUUACGAGGC | -2.59 ± 0.25 | -1.1 ± 0.22 |
| GGGUAGCAAUAUUACGUCCC | -0.987 ± 0.29 | – |
| GCCAAGCAAUAUUACGCCCC | -1.02 ± 0.21 | -0.946 ± 0.22 |
| CUACAGCAAUAUUACGAAUA | -3.07 ± 0.41 | -2.21 ± 0.27 |
| UGAAAGCAAUAUUACGGGCA | -0.0393 ± 0.081 | 0.386 ± 0.092 |
| GUAUAGCAAUAUUACGUGCA | -0.903 ± 0.19 | -0.516 ± 0.18 |
| AAACAGCAAUAUUACGUGCA | -1.19 ± 0.068 | -0.303 ± 0.074 |
| CAUGAGCAAUAUUACGAUGA | -3.5 ± 0.2 | -2.48 ± 0.15 |
| CCAUAGCAAUAUUACGCUGU | -4.23 ± 0.39 | -2.54 ± 0.29 |
| UCGAAGCAAUAUUACGGUGG | -1.82 ± 0.094 | -1.55 ± 0.14 |
| GGGCAGCAAUAUUACGGUGA | -0.844 ± 0.074 | -0.671 ± 0.088 |
| CCCCAGCAAUAUUACGACCU | -3.23 ± 0.15 | -2.32 ± 0.23 |
| AUGCAGCAAUAUUACGGGGU | -3.71 ± 0.17 | -2.88 ± 0.18 |

| Sequence | self-splicing fitness (ln) (30 °C) | self-splicing fitness (ln) (37 °C) |
| --- | --- | --- |
| CCAAAGCAAUAUUACGAUGG | -4.15 ± 0.22 | -2.29 ± 0.22 |
| ACUUAGCAAUAUUACGCAUA | -1.74 ± 0.12 | -1.42 ± 0.14 |
| AGCAAGCAAUAUUACGAGUU | -2.98 ± 0.16 | -1.55 ± 0.16 |
| GGCCAGCAAUAUUACGUUGA | -2.04 ± 0.12 | -1.27 ± 0.12 |
| CAUCAGCAAUAUUACGACAC | -1.78 ± 0.21 | -3.05 ± 0.37 |
| GAUCAGCAAUAUUACGGGAA | -0.882 ± 0.13 | -1.04 ± 0.13 |
| AUAAAGCAAUAUUACGCGUG | -1.11 ± 0.067 | -0.15 ± 0.074 |
| CCCGAGCAAUAUUACGGGCU | -3.98 ± 0.26 | -2.65 ± 0.21 |
| UCCAAGCAAUAUUACGUAGA | -0.92 ± 0.06 | 0.437 ± 0.092 |
| ACUUAGCAAUAUUACGUUAC | -3.55 ± 0.26 | -2.55 ± 0.38 |
| UGACAGCAAUAUUACGCUUC | -3.56 ± 0.25 | -2.29 ± 0.23 |
| UUACAGCAAUAUUACGCGGG | -2.33 ± 0.14 | -0.688 ± 0.12 |
| UCGGAGCAAUAUUACGUACC | -2.84 ± 0.48 | – |
| GCGAAGCAAUAUUACGGAGA | -2.88 ± 0.26 | -2.87 ± 0.44 |
| AAAAAGCAAUAUUACGAUCA | -0.00996 ± 0.084 | -0.0134 ± 0.094 |
| UCGAAGCAAUAUUACGUCGA | -3.65 ± 0.47 | -1.78 ± 0.19 |
| CCGGAGCAAUAUUACGGAGC | -3.73 ± 0.48 | -2.55 ± 0.44 |
| UCAGAGCAAUAUUACGGGAA | – | -2.4 ± 0.2 |
| GUAUAGCAAUAUUACGGGUC | -1.89 ± 0.2 | -1.62 ± 0.39 |
| CGAGAGCAAUAUUACGCUUG | -3.51 ± 0.33 | -3.14 ± 0.34 |
| GCGUAGCAAUAUUACGUGCG | -4.01 ± 0.17 | -1.62 ± 0.14 |
| AGGGAGCAAUAUUACGAUCU | -2.71 ± 0.23 | -1.77 ± 0.17 |
| CCACAGCAAUAUUACGGCGA | -3.36 ± 0.18 | -1.63 ± 0.13 |
| UUGCAGCAAUAUUACGCUAU | -2.99 ± 0.25 | -1.16 ± 0.17 |
| GACAAGCAAUAUUACGGAGU | -3.03 ± 0.1 | -0.954 ± 0.1 |
| AGUAAGCAAUAUUACGUGGC | -2.68 ± 0.16 | -2.54 ± 0.22 |

| Sequence | self-splicing fitness (ln) (30 °C) | self-splicing fitness (ln) (37 °C) |
| --- | --- | --- |
| GCAUAGCAAUAUUACGUUUC | -4.77 ± 0.26 | -3.01 ± 0.15 |
| GGAUAGCAAUAUUACGUAGU | -3.21 ± 0.15 | -1.67 ± 0.15 |
| ACCGAGCAAUAUUACGUGUA | -2.2 ± 0.13 | -1.49 ± 0.096 |
| CCUUAGCAAUAUUACGGAAU | -3.53 ± 0.2 | -3.15 ± 0.3 |
| UGGCAGCAAUAUUACGGGCC | – | -1.78 ± 0.28 |
| UGGUAGCAAUAUUACGGGUA | -2.28 ± 0.14 | -0.719 ± 0.12 |
| GUUAAGCAAUAUUACGAUAA | -1.48 ± 0.18 | -0.923 ± 0.2 |
| CAGAAGCAAUAUUACGGAAU | -3.93 ± 0.2 | -1.94 ± 0.18 |
| GUGAAGCAAUAUUACGCCGC | -2.25 ± 0.16 | -1.5 ± 0.26 |
| UUCUAGCAAUAUUACGUACC | – | -0.136 ± 0.48 |
| CGACAGCAAUAUUACGCUAC | – | -1.12 ± 0.28 |
| GUACAGCAAUAUUACGCAGG | -3.44 ± 0.23 | -1.93 ± 0.19 |
| UUGCAGCAAUAUUACGAACC | -1.76 ± 0.45 | – |
| AAGUAGCAAUAUUACGUUGU | -2.95 ± 0.1 | -2.43 ± 0.13 |
| ACAUAGCAAUAUUACGUUGA | -2.56 ± 0.17 | -1.66 ± 0.14 |
| CCAGAGCAAUAUUACGCAUU | -3.53 ± 0.33 | -2.22 ± 0.2 |
| AGGGAGCAAUAUUACGAUAG | -2.56 ± 0.23 | -2.66 ± 0.3 |
| CUCUAGCAAUAUUACGCUCA | -1.32 ± 0.3 | -3.25 ± 0.37 |
| CAUUAGCAAUAUUACGGUGG | -0.719 ± 0.066 | 0.024 ± 0.093 |
| GUGUAGCAAUAUUACGUGCC | -3.46 ± 0.35 | -2.7 ± 0.32 |
| ACCCAGCAAUAUUACGUGCG | -3.12 ± 0.13 | -1.85 ± 0.098 |
| UAAAAGCAAUAUUACGCCCA | -0.0418 ± 0.15 | 0.358 ± 0.19 |
| CCAAAGCAAUAUUACGAGUU | -4.72 ± 0.34 | -2.31 ± 0.16 |
| UGAAAGCAAUAUUACGGUUC | -4.11 ± 0.26 | -2.41 ± 0.23 |
| GGUCAGCAAUAUUACGGGUC | -1.54 ± 0.13 | -1.58 ± 0.16 |
